Assay results from the supplement of paper PMC9170038.

Tested on: MS2 coat protein
Test: apparent KD of MS2 coat protein; designed switch direction (-1 OFF switch, 1 ON switch): -1; higher = weaker reporter binding
In short: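 Apparent KD, taken as the median over clusters for each design, was obtained by curve-fitting normalised cluster fluorescence. Designed RNA switches had been transcribed on Illumina chips by stalled E. coli RNA polymerase and titrated with SNAP-549-labelled MS2 coat protein, doubling from 0.7 or 1.5 nM to 3 µM.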

[1] = Eterna round: R95, input ligand: FMN 200 uM
[2] = Eterna round: R95, input ligand: microRNA oligo, concentration not stated
[3] = Eterna round: R95, input ligand: none
[4] = input ligand: microRNA oligo, concentration not stated

Row | Sequence | apparent KD of MS2 coat protein [1] | apparent KD of MS2 coat protein [2] | apparent KD of MS2 coat protein [3] | apparent KD of MS2 coat protein (input ligand: FMN 200 uM) | apparent KD of MS2 coat protein (input ligand: none) | apparent KD of MS2 coat protein [4]
1 | AGAUGGCGAGGAUAUACAUGAGGAUCACCCAUGUGAAGAUAAAGAGUGAGGAAGAAAAGUAGAAGGCGCUGUCA [Mat - Exclusion 3 - Mod of Salish D28] (puzzle: Exclusion 3) | 351 nM | 106 nM | 123 nM | – | – | –
2 | CUGAGUUUAGGAUAUACAUGAGGAUCACCCAUGUAAAGUAGCUUGCGUACAGGCAGAUGUAGAAGGAAAUUCGG [Mod of JL 7 - Jieux - Exclusion 3] (Eterna round: R97, puzzle: Exclusion 3) | – | – | – | 31.5 nM | 41.8 nM | –
3 | UAUUAAACAAGCAGGUCCCACAUGAGGAUCACCCAUGUGCUCGUCUUAUAAGGUACUGUGACGAAAGUCACGGUACC [Elimod 16 - Jieux - Sensor, turn-off variant 1] (Eterna round: R97, puzzle: Sensor, turn-off variant 1) | – | – | – | 37.2 nM | 40.1 nM | –
4 | ACUCUGCGAGGAUAUACAUGAGGAUCACCCAUGUGCGAGUUACUUGUGAGGUCGGUUGGUAGAAGGCGCGGAGA [Mat - Exclusion 3 - Mod of JL D101] (puzzle: Exclusion 3) | – | 89.7 nM | – | – | – | –
5 | ACAUGUAAUGUAGGAUAUUUUACACAUGAGGAUCACCCAUGUAACCGGAGGCUUUACUAUGAGUAAGAGAAGGGUAUGUACAUG [Ex NG2 #63] (Eterna round: R96, puzzle: Exclusion NG 2) | – | – | – | 90.5 nM | 131 nM | 85.2 nM
6 | GUAAUUAUAUAGGAUAUCGAUUUUAUUAUUUAACGAGAAGGAUGAACAUGAGGAUCACCCAUGUGGUAUCAUGG [JL-ex6-3.05] (puzzle: Exclusion 6) | – | 138 nM | – | – | – | –
7 | UAUUACCCAAGCAGGUCCCACAUGAGGAUCACCCAUGUGCUCGUCUUAUAACGAUCUGUGGGAAAACCUACGGAUCG [Elimod 20 - Jieux - Sensor, turn-off variant 1] (Eterna round: R97, puzzle: Sensor, turn-off variant 1) | – | – | – | 27.7 nM | 34.4 nM | –
8 | ACAAGAAUUUUGCUCGUAAAGUAGAAACGCGAGAGCGGGACAUGAGGAUCACCCAUGUAAAGGCAGUUGGUGGAGAU [JR_SV3TOV2_Sub028] (puzzle: Sensor v3, turn-off variant 2) | 39.7 nM | 53.2 nM | 48.7 nM | – | – | –
9 | CGGAGCAGAGGGAGAUCCAACAUGAGGAUCACCCAUGUCUCACAAGCUUUUUGCUCGUCUUAUUGUACCUUGGUGCU [JL ViennaUCT Edcesobi mod 7] (puzzle: Sensor v3, turn-off variant 1) | 64.5 nM | 11.1 nM | 49.1 nM | – | – | –
10 | AGUACUAACACGAAAGUGUUAGUACAAUAAGCUUGUGAUACAUGAGGAUCACCCAUGUCCUCAUAAGCUCGUCUUAU [salish99_TOv2_r3_045] (puzzle: Sensor v3, turn-off variant 2) | 24.7 nM | 652 nM | 21.9 nM | – | – | –
11 | AGUUGUUGCGCAGGAUAUGAGGAUCACCCAUAGUAGGAUAUCGAAAGGGAAGGACUGAGGAUUACCCAGAAGGGCGUGAUGACA [pwkr exNG2 2xF5 2xFMN.7] (Eterna round: R96, puzzle: Exclusion NG 2) | – | – | – | 1530 nM | 302 nM | 292 nM
12 | AACCUAAUGCGAGGAUAUACUGAGACGUACAGUCGUCAGACAUGAGGAUCACCCAUGUACGCCUCGUAGAAGGCGCGUGACUAA [Bearareus] (Eterna round: R96, puzzle: Exclusion NG 2) | – | – | – | 32.6 nM | 16.8 nM | 13.4 nM
13 | GGUAACAUGAGGAUCACCCAUGUGAUACGUUACAUAUAAACCGAGGAUAUACCCUCAGAACGAGGGUAGAAGGUGGGACGACAC [Eternabot solution 8] (Eterna round: R96, puzzle: Exclusion NG 3) | – | – | – | 95.8 nM | 102 nM | 51.6 nM
14 | UAUUAGCAAGCAACUGGGUACAUGAGGAUCACCCAUGUGCUCGUCUUAUAAGGUACUGUGACGAAAGUCACUGUACC [mod--Eli14] (Eterna round: R97, puzzle: Sensor, turn-off variant 1) | – | – | – | 17.8 nM | 16.3 nM | –
15 | UUAAUUAAUUGACUGCAAGAUCAACAUGAGGAUCACCCAUGUGAGGAUAUCAGCUCGUUUAGAGCUGAGAAGGCACAAGCAGUC [ExNG3/16-A2] (Eterna round: R96, puzzle: Exclusion NG 3) | – | – | – | 53.6 nM | 17.6 nM | 16.7 nM
16 | UGAGUGCGUGUUAGGAUAUGGUUUGGUAUUUCGGGCUAGAAGGGACAUGAGGAUCACCCAUGUAAUUGGCGGGU [-17.2, -16.9 kcal, 22% A] (Eterna round: R97, puzzle: Brourd's mod of Exclusion 4) | – | – | – | 259 nM | 227 nM | –
17 | CCCUCACUUGAGGAUCACCCAAGUCAGGAUAUCUCACCCAUCCUACGGGACGGGUCACAGAGAAGGGACUAAAA [Isdius] (Eterna round: R97, puzzle: Exclusion 1) | – | – | – | 37.3 nM | 20 nM | –

Row | Sequence | apparent KD of MS2 coat protein [1] | apparent KD of MS2 coat protein [2] | apparent KD of MS2 coat protein [3] | apparent KD of MS2 coat protein (input ligand: FMN 200 uM) | apparent KD of MS2 coat protein (input ligand: none) | apparent KD of MS2 coat protein [4]
18 | AGGAUGCUAGGAUAUACAGGUUGAAAACUGAUCGGCGCCAGACAUGAGGAUCACCCAUGUAGAAGGAGCGAGGC [EX2 B.26] (Eterna round: R97, puzzle: Exclusion 2) | – | – | – | 36.1 nM | 38.7 nM | –
19 | AGCGGUGUUCAGGAUAUCUGGUUAUGACACAUGAGAGAAGGGAGCACAUGAGGAUCACCCAUGUGACCUUCGCG [Eternabot (Original) Solution 23] (Eterna round: R97, puzzle: Exclusion 6) | – | – | – | 16 nM | 15.5 nM | –
20 | UUUAAUUUUUUUUUUUUACAAGCUUUUUGCUCGUCUUAUACAUGAGGAUCACCCAUGUAGGUGAAGGAUAAAUUAUC [JMF 27] (puzzle: Sensor v3, turn-off variant 2) | 25.9 nM | 66.4 nM | 35.9 nM | – | – | –
21 | GCUGGUCGAGGAUAUGCAUAUACUGGAUACAGUGGAAGGUCACAUGAGGAUCACCCAUGUAGAAGGCGACUAGC [EX2 #37] (Eterna round: R97, puzzle: Exclusion 2) | – | – | – | 558 nM | 463 nM | –
22 | ACAAGGAUGAAGGAUAUGGAAGAGUGGGAGCCUCCAGAAGGUCGUACAUGAGGAUCACCCAUGUAUUGGGCUUA [Eternabot (L2) Solution 38] (Eterna round: R97, puzzle: Exclusion 6) | – | – | – | 22.5 nM | 21 nM | –
23 | CUCUACGGAGGAUAUACAACCGGUUAUCCCUGUGGAACGCCACAUGAGGAUCACCCAUGUAGAAGGCCGAGAAA [Ceones] (puzzle: Exclusion 2) | 15.2 nM | 211 nM | 218 nM | – | – | –
24 | AUAAUGUGAGGAUAUCAGUCGACUAGCUUCGGCUAGUCGACUGAGAAGGUACAUGAGGAUCACCCAUGUGGUUC [E4/11-B1] (Eterna round: R97, puzzle: Exclusion 4) | – | – | – | 885 nM | 456 nM | –
25 | UGCUACGGAGGAUAUACAUGAGGAUCACCCAUGUGAGAGAUUUAGCCGAGAGGCUAGUGUAGAAGGCCGUAGCU [jl-ex3-4.17 jl mod] (Eterna round: R97, puzzle: Exclusion 3) | – | – | – | 400 nM | 62.8 nM | –
26 | CGCCUGUAAGGAUAUUAGUAGUAGUCAGAAUAGACUAUUACUGAGAAGGUACAUGAGGAUCACCCAUGUUGGCG [Eli x4 4.10] (Eterna round: R97, puzzle: Exclusion 4) | – | – | – | 19.7 nM | 18.5 nM | –
27 | AAACCCUGAGGAUAUACAUAACAACAAAUCCUCACGUGCCAACAUGAGGAUCACCCAUGUAGAAGGCAGGCCCA [Bigegedi] (puzzle: Exclusion 2) | 48.4 nM | 15.8 nM | 15.3 nM | – | – | –
28 | CUUCACCCACCAGAGCACACCCACAUACCUGCUCAGGUGACAUGAGGAUCACCCAUGUUUUUUGCCCGUCUUAUCUU [Tilevere] (puzzle: Sensor v3, turn-off variant 2) | 31.6 nM | 144 nM | 33.9 nM | – | – | –
29 | AUACCACGAGGAUAUCGUCUAUAAUACAUGAGGAUCACCCAUGUUAUAUCUGUAAUGUUUCGAGAAGGCGUGUGUU [JR_E5_Sub084] (Eterna round: R96, puzzle: Exclusion 5) | – | – | – | 17 nM | 21.3 nM | 15.4 nM
30 | UUCGUGCAGCUUUGCUGUACGCGUACAUGAGGAUCACCCAUGUAGGAUAUGGUACGCAAAGCGUGCUAGAAGGAUAUGGAGAGG [Mat - Exclusion NG 3 - Mod of JL - D81] (Eterna round: R96, puzzle: Exclusion NG 3) | – | – | – | 11.7 nM | 13.1 nM | 8.08 nM
31 | AAUGGAUGUGUUAGGAUAUCCGGAGGGAAACCUCCGGAGAAGGAACAUGAGGAUCACCCAUGUAUGUAAAAUAC [AK-MS2ROC-r4-Bmoexclusion4-3] (Eterna round: R97, puzzle: Brourd's mod of Exclusion 4) | – | – | – | 449 nM | 111 nM | –
32 | AGAAAUGCCCAUGGCCGCAAGCCUUUUGCUUGUCUUACCACAUGAGGAUCACCCAUGUGACAUGGGCUCCUGAUAAU [Zace] (puzzle: Sensor v3, turn-off variant 2) | 12.6 nM | 10.4 nM | 11 nM | – | – | –
33 | AUUGUUUGAUACCUCUAAUACAUGAGGAUCACCCAUGUUAUCGAGGAUAUGCAGAAGAGAGGAGAGCAGAAGGCGAAGUAAGAG [JR_ExcNG3_Sub027] (Eterna round: R96, puzzle: Exclusion NG 3) | – | – | – | 21.5 nM | 19.6 nM | 15.9 nM
